Test results from patent publication US6471960B1, “Methods for the prevention or treatment of alzheimer's disease” (Rutgers, the State University, priority 1994, dated 2002).

Legend:
[1] = Fibril formation (electron microscopy, light scattering); assay type: physicochemical; details: pH adjusted to theoretical pI
Protocol: Fibril formation was accomplished by taking the peptides up in water. 10×calcium and magnesium free phosphate buffered saline (“PBS”) was added to give a 1×PBS solution (2.7 mM KCl, 1.2 mM KH2PO4, 138 mM NaCl, 8.1 mM Na2HPO4). Fibril formation was obtained by adjusting the pH to the theoretical pI of the β-amyloid peptides. The theoretical pI of β-amyloid peptide 1-42 was 4.9; the theoretical pI of β-amyloid peptide 1-28 was 5.6; the theoretical pI of β-amyloid peptide 1-28 (Dutch) was 6.2. The final concentration of peptide was 1 mg/ml. […] Fibrils were observed immediately or within no more than two days at room temperature. Small aliquots of suspended aggregated peptides were absorbed onto carbon-coated copper grids and stained with 2% (w/v) uranyl acetate. Samples were examined in a JEOL 1200EX electron microscope.
Synthetic Amyloid Fibril Formation—β1-28 (Chiron Mimotopes Peptide Systems) and β1-40 (Bachem Bioscience) peptides were dissolved in water. Aggregation solution conditions were 1×PBS, 1 mg/ml β-peptide and the pH was adjusted to the theoretical pI of the peptides (5.6 for β1-28 and 4.9 for β1-40). Solutions were kept at room temperature. Fibril formation was confirmed by light scattering and transmission electron microscopy.
It had been possible that some of the charged→glutamine peptide variants might not form fibrils. […]

[2] = target: tissue plasminogen activator (Homo sapiens, UniProt P00750); assay: Plasminogen activation stimulation assay (H-D-valyl-L-leucyl-L-lysine-p-nitroanilide), Example 3; assay type: biochemical; details: stimulators at 56 μg/ml
Sequence of tissue plasminogen activator (P00750 23-562 limits assumed): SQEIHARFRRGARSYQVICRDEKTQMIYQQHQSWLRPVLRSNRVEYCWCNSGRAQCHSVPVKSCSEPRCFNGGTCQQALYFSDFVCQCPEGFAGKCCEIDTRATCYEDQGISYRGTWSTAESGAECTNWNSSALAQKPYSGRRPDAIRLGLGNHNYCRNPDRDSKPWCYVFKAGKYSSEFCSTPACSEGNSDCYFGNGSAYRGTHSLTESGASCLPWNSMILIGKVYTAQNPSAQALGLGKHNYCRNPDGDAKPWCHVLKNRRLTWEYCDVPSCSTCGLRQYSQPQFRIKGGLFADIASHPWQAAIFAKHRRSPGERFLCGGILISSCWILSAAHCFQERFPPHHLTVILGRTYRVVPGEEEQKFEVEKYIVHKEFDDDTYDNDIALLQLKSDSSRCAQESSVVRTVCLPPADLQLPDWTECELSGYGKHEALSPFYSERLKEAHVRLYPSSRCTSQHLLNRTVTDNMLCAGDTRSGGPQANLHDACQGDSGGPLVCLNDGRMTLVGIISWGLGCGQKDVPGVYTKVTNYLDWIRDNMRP
Protocol: To further investigate this relationship, the ability of amyloid β peptide fibrils to stimulate tissue plasminogen activator was studied. For this purpose, plasminogen activation assays were carried out as described by Bennett, W. F. et al., J. Biol. Chem. 266:5191-5201 (1991)). Plasmin generation was monitored by measuring the absorbance change at 405 nm produced by hydrolysis of the substrate, H-D-valyl-L-leucyl-L-lysine-p-nitroanilide. Stimulators tested were present in the assay at a concentration of 56 μg/ml. The apparent first-order rate constants of plasminogen activation t-PA were measured for various stimulators. Rate constants were determined as described by Castro, M. J. M., et al., Analyt. Biochem. 226:225-231 (1995)) using fresh or aged amyloid β peptide fibrils or control proteins.
The twelve β1-28 peptide analogs were used for plasminogen activation and direct binding assays with the fibrinogen-binding proteins t-PA, plasmin, and thrombin, specifically labeled at their respective protease domain active sites as described above. For five of the peptide variants R5Q, […], D23Q, and K28Q, t-PA binding was reduced relative to its binding to both wt β1-28 and fibrin controls, implying that the t-PA binding “footprint” on the fibrils was rather large. […]

tPA [3] = target: T1, tPA (Homo sapiens, UniProt P00750); assay: Binding of active site 125I-labeled tPA to amyloid fibrils or fibrin; details: for t-PA binding relative to wt β1-28 and fibrin controls: fibrils of Charged→Gln β(1-28) variants; for effect on tPA binding to amyloid fibrils: ε-aminocaproic acid at 0.1 M (100 mM)
T1 sequence (P00750 36-562): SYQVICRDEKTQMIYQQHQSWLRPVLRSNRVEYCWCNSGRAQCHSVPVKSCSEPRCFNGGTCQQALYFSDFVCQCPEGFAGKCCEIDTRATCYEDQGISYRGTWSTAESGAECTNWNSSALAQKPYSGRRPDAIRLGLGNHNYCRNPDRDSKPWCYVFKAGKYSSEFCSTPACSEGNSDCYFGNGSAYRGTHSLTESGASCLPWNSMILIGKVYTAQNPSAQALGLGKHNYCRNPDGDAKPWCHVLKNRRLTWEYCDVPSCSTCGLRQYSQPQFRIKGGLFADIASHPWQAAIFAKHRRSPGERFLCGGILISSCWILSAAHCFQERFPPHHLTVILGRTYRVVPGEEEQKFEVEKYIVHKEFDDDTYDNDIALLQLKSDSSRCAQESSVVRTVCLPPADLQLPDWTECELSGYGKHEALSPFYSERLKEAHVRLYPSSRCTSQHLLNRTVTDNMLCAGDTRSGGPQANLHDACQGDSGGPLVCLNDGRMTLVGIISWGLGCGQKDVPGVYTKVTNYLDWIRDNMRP
Protocol: In this study, D-Tyr-Pro-Arg-chloromethyl ketone (Bachem Bioscience) was radioiodinated by the chloramine-T method and subsequently used to irreversibly bind to the active site of tPA. (Keyt, et al, Anal. Biochem. 206:73-83 (1992)). 1 mCi of I^125 was mixed with YPRck in 1 M Tris-HCL, 0.01% Tween 20 at pH 7.5. To initiate iodination 10 μl of 1 mg/ml Chloramine-T was added. After 1 minute, 20 μl of 1 mg/ml sodium metabisulfite was added to reduce the Chloramine-T and iodide. 15 μl of 1 mg/ml tPA was then added, and the mixture was incubated at room temperature for 1 hour to allow the YPRck to bind to the tPA. Radiolabeled tPA was purified from free iodine and unreacted YPRck using a PD-10 column preequilibrated with PBS and 0.003% Tween 20. The labeled protein was stored at −20° C.
Synthetic Amyloid Fibril Formation—β1-28 (Chiron Mimotopes Peptide Systems) and β1-40 (Bachem Bioscience) peptides were dissolved in water. Aggregation solution conditions were 1×PBS, 1 mg/ml β-peptide and the pH was adjusted to the theoretical pI of the peptides (5.6 for β1-28 and 4.9 for β1-40). Solutions were kept at room temperature.
Binding of Active Site-labeled tPA to Amyloid Fibrils or to Fibrin—tPA binding was determined by a modification of the method of Higgins and Vehar, Biochem. 26:7786-7791 (1987)).
To confirm that the labeled tPA's protein binding surface was not altered by the radioiodination, it was bound to fibrin by substituting fibrinogen for the fibrils. Fibrin clot formation was initiated by adding 0.4 units/ml (final human thrombin. The remainder of the assay proceeded as above.
Ihibition of kringle-dependent labeled tPA Binding to Amyloid Fibrils and Fibrin Using ε-aminocaproic acid to the binding solutions were set up on the same manner as previously noted except that ε-aminocaproic acid at 0.1 M was included in the conditions.
Previous studies of the interaction of human tissue plasminogen activator with the amyloid β peptide employed a functional plasminogen activation assay (Kingston, I. B. et al., Nature Medicine 1:138-142 (1995); Castro, M. J. M., et al., Analyt. Biochem. 226:225-231 (1995)). However, to understand this interaction more fully, a sensitive and quantitative assay for measuring direct amyloid β peptide binding by t-PA and other fibrin(ogen)-binding proteins (e. g., plasmin) was employed in the present invention. For this purposed a specific probe molecule, D-Tyr-Pro-Arg chloromethyl ketone (YPACK), was radioiodinated with ^125I then reacted with t-PA, plasmin, and thrombin to effect covalent active site modification of their respective protease domains (Keyt, B. A. et al., Analyt. Biochem. 206:73-83 (1992)). Binding of ^125I-YPACK-modified t-PA to fibrin and amyloid β peptide fibrils was carried out by a modification of the method of Higgins, D. L. et al. (Fibrinolysis 6:161-166 (1992)). Incubations of t-PA (0.5 nM) with fibrin or fibrils (100 μg/ml) were in 1X phosphate buffered saline, 0.01% Tween-80, 0.5% bovine serum albumin, pH 7.4, for 60 min. at 37° C. In some instances, ε-amino caproic add (ε-ACA) was also present at a concentration of 100 mM.

tPA [4] = target: T1, tPA; assay: Plasminogen activation by t-PA, initial velocities under steady state conditions (S-2251, Lineweaver-Burk); assay type: biochemical; set-up: purchased Genentech, Inc. Activase; details: unaggregated peptides

Growth Hormone Releasing Factor: control peptide, 29 amino acids
fibril formation [1]: did not form fibrils

DAEFRHDSGYEVHHQQLVFFAEDVGSNK [K16Q]
stimulation of t-PA-mediated plasminogen activation [2]: enhanced stimulation

DAEFRHDSGYEVHHQKLVFFAEQVGSNK [D23Q]
t-PA binding relative to wt β1-28 and fibrin controls (tPA [3]): reduced

DAEFRHDSGYEVHHQKLVFFAEDVGSNQ [K28Q]
t-PA binding relative to wt β1-28 and fibrin controls (tPA [3]): reduced
stimulation of t-PA-mediated plasminogen activation [2]: profoundly decreased levels of stimulation

β 1-40 Amyloid Fibrils: synthetic β1-40 amyloid peptide (Bachem Bioscience), aggregated to fibrils
Kd of t-PA binding to fibrils (tPA [3]; 125I-YPACK-modified t-PA): sub-nanomolar range
% tPA Bound (tPA [3]; about 0.5 nM labeled tPA, 0.1 mg/ml fibrils or fibrin, 1 hour): 62%
tPA binding to amyloid fibrils (qualitative) (tPA [3]; radiolabeled tPA, tPA:fibrin binding as control): binds

NCCCCCC(=O)O [ε-aminocaproic acid, reference compound]
effect on tPA binding to amyloid fibrils (tPA [3]): capable of competing out amyloid binding
effect on tPA binding to amyloid fibrils (tPA [3]; listed as ε-amino caproic acid): partially blocked

Corticotropin Releasing Factor: control peptide, 41 amino acids
fibril formation [1]: did not form fibrils

Fibrinogen
Km (tPA [4]; Km of t-PA for plasminogen with the stimulator present): 3.3 µM
kcat (tPA [4]; kcat of t-PA with the stimulator present): 0.051 s⁻¹

DAEFQHDSGYEVHHQKLVFFAEDVGSNK [R5Q]
t-PA binding relative to wt β1-28 and fibrin controls (tPA [3]): reduced
